This note sets out measurements from the supplement of paper PMC9170038.

The subject of this data set is MS2 coat protein. The experiment in a line: apparent KD of MS2 coat protein; higher = weaker reporter binding. As to conditions: Eterna round: R107. A digest of the protocol: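 Each design's apparent KD comes from the median of binding-curve fits to its normalised clusters. Those clusters carried RNA switches transcribed on-chip from Illumina sequencing clusters. SNAP-549-labelled MS2 coat protein was titrated onto them in twofold steps (0.7 or 1.5 nM to 3 µM; per step 0.8–1.5 h down to 10–20 min). Conditions were 100 mM Tris-HCl pH 7.5, 80 mM KCl, 4 mM MgCl2, without or with constant ligand.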

[1] abbreviates: input ligand: theophylline 20 uM.
Setting [2] is: input ligand: theophylline 2 mM.
[3] abbreviates: input ligand: tryptophan 2.4 mM.

Take “GCCUCCAGCCGAAGGAGCGCUAGAAGGUGACAUGAGGAUCACCCAUGUGUGUGAUGUGGCUAGCAGGUAGGUCGCGGAGGAGGUA [Exclusion - Arginine B (Freestyle 21)]”: the “apparent KD of MS2 coat protein” value is 118 nM (input ligand: arginine 13.2 mM); 99.7 nM (input ligand: none); 134 nM under setting [1]; 111 nM under setting [2]; 92 nM under setting [3].
As for “AAAAUAAAUAAAACACGUAACAUGAAGGAUACCAGACCGGAAACGGUCCCUUGGCAGCCUCUACAUGAGGAUCACCCAUGUCGUG [Mat - Same State Theophlline A - Mod of Eli - D18]”, the “apparent KD of MS2 coat protein” value by setting is: (input ligand: arginine 13.2 mM) 110 nM; under setting [1], 141 nM; under setting [3], 258 nM.
As to “ACAUGAGGAUCACCCAUGUCAAGGCACGAUACCAGCUGAUCCGGUGGCCCUUGGCAGCGUCACGUUUGGUCCCGCGGAUGACACG [p'pmullin]”, the “apparent KD of MS2 coat protein” value (input ligand: arginine 13.2 mM) was 32.1 nM, the “apparent KD of MS2 coat protein” value under setting [1] came to 139 nM and the “apparent KD of MS2 coat protein” value under setting [3] is 106 nM.
As for “CAUGGGUGGGUGCUGCCACCCAUUGGUGAUACCAGCAUCGAAAGAUGCCCUUGGCAGCACCAACAUGAGGAUCACCCAUGUAAUA [(M)'-(T)'-(M)''-(T1)-(T2)-(M1)-(M2)_Design4]”, the “apparent KD of MS2 coat protein” value by setting is: (input ligand: arginine 13.2 mM) 58.6 nM; under setting [1], 145 nM; under setting [3], 67.8 nM.
With “UAGACGGCCGGAAGGAGCGGUACAUGAGGAUCACCCAUGUAUCCCUGGGCAUCCGUAGUGUGCCAGGUAGGUCGCCGGUUGCGGG [XArg-B21]”, the “apparent KD of MS2 coat protein” value stood at 15.3 nM (input ligand: arginine 13.2 mM); 15.5 nM (input ligand: none); 25.2 nM under setting [1]; 18.2 nM under setting [2]; 15.9 nM under setting [3].
For “GGGUACAUCGCGGCCGCCACUCGUGUAAAUACAUGAGGAUCACCCAUGUCGAUGGAGACAUCGGAGAGGACCGGGUGAUGUACCG”, the “apparent KD of MS2 coat protein” value is, setting by setting: (input ligand: arginine 13.2 mM) 110 nM; (input ligand: none) 81 nM; under setting [1], 114 nM; under setting [2], 81.5 nM; under setting [3], 46.7 nM.
Taken in the same sequence, the figures for “AGUCUUAUAGGAAGGAGCGCAAUCAUAACAUGAGGAUCACCCAUGUCGAGGUGAGGGUCAUUGCAGGUAGGUCGCCUAACUAAGA [Same State - Arginine B (Freestyle 8)]” were 126 nM, 281 nM, 121 nM, 344 nM and 96.5 nM.
Regarding “CAAUAUAUAGCGGCCGCCACUUACUCAUGAGGUAACAACAUGAGGAUCACCCAUGUUUGAGGAUCAAGGACCGGGCUAUAUAUUG [AstrosSSTryB#6]”, the “apparent KD of MS2 coat protein” value was found to be 22.2 nM (input ligand: arginine 13.2 mM), 31.9 nM under setting [1] and 32.2 nM under setting [2].
Consider “UGCAUGAUCUGAAGGAGCGUGUAUGAUGAUAACAUGAGGAUCACCCAUGUCGAGACGGUAACACAGGUAGGUCGCAGAUCAUGCU [Arg B SS t4]”, for which the “apparent KD of MS2 coat protein” value is 21.4 nM (input ligand: arginine 13.2 mM); 23.2 nM (input ligand: none); 31.7 nM under setting [1]; 28.3 nM under setting [2]; 24.7 nM under setting [3].
In the case of “UGGUAGGUAGGAAGGAGCGCAUACUUCACAUGAGGAUCACCCAUGUCGAGACGUGAGUCAGUGCAGGUAGGUCGCCUAGUUAUGA [Same State - Arginine B (Freestyle 23)]”, the “apparent KD of MS2 coat protein” value was determined as 30.4 nM (input ligand: arginine 13.2 mM); 36.4 nM (input ligand: none); 36.1 nM under setting [1]; 37.6 nM under setting [2]; 30.3 nM under setting [3].
With “AGGACGGUCGGAAGGAGCGGUACAUGAGGAUCACCCAUGUACCUCUGGGCAUCCGUAGUGUGCCAGGUAGGUCGCCGAUUGCGGG [Lareerra]”, the “apparent KD of MS2 coat protein” value (input ligand: arginine 13.2 mM) came to 15.7 nM; the “apparent KD of MS2 coat protein” value (input ligand: none) was determined as 12 nM; the “apparent KD of MS2 coat protein” value under setting [1] was 19.5 nM; the “apparent KD of MS2 coat protein” value under setting [2] was determined as 16.5 nM; the “apparent KD of MS2 coat protein” value under setting [3] was 11.8 nM.
For “GUAGCUAUCGCGGCCGCCACUAAACCGGAAACGGAACAGUAGGAUCACCAUUGUGGCGAAAGCCAUAGGACCGGGCGAUAGCUAC [TryBS - Double Magnet system 2]” the same measures were 601 nM, 502 nM, 830 nM, 1210 nM and 80 nM.
For the sequence “GUACCGUAAACGGCCGCCACUGACAUGAGGAUCACCCAUGUGCUGGUGGUGCACAACCUCAGGUUCAGGACCGGGUUUCCGAGCU [theeternabot_exclusion_MS2_Trp_B_50]”, the “apparent KD of MS2 coat protein” value (input ligand: arginine 13.2 mM) was 23 nM, the “apparent KD of MS2 coat protein” value under setting [1] stood at 45.3 nM and the “apparent KD of MS2 coat protein” value under setting [2] was found to be 32.2 nM.
Regarding “ACAUGAGGAUCACCCAUGUACAUGAGGGAAGGAGCGGUACAUGAGCCAGGUAGGUCGCCCAUGAGCAUCAGGCAUGUACAUCAGC [kokmmullin]”, the “apparent KD of MS2 coat protein” value is 47.6 nM (input ligand: arginine 13.2 mM); 99.5 nM (input ligand: none); 97.3 nM under setting [1]; 105 nM under setting [2]; 56.6 nM under setting [3].
Consider “AAUUCAAUUUUCUUGAUGUAUUAUAUAUUUCGAGGACCGGUACGGCCGCCACUCGUUAAUUACAUGAGGAUCACCCAUGUUAGCU [JR_ExcTryptoA_Sub009]”, for which the “apparent KD of MS2 coat protein” value reads like this: (input ligand: arginine 13.2 mM) 13.6 nM; under setting [1], 17.5 nM; under setting [2], 16.2 nM.
Take “UGUAUGGACUGAAGGAGCGGGUUGAUAACUUGAGGAUCACCCAGGUAAAAGGCGAAAGCCGCCCAGGUAGGUCGCAGUCCAUACU”: the “apparent KD of MS2 coat protein” value is, setting by setting: (input ligand: arginine 13.2 mM) 40.2 nM; (input ligand: none) 45.6 nM; under setting [1], 54.9 nM; under setting [2], 61.7 nM; under setting [3], 49.2 nM.
